This is an account of results in the DeepSol protein solubility set.

The nature of the series: soluble on expression in E. coli; label from the status in PepcDB or PDB records.
Turning to “GEGLGEEVIEEVYEELLSSFDTEYGGFSGAPKFPTPHKISFLLRYWRRSRNPEALHMAEYTLDKMRRGGIYDHLGSGFHRYSTDSMWLLPHFEKMLYDQALTAIAYTEAYQVTGKDLYKETAEGILDYVLRDLTSPEGGFYCGEDADVEREEGKYYLWTLEEIRSILDPEDSELIIKMFNLREEGNFEEEIRGRETGTNLFYMARSPGSLAAKMKIPVEEVEKKVKAAREKLLKARYERKRPSLDDKILTDWNGLMIAAFAKGYQVFGEQRYLKAAEKAADFILMALYSPGDGLLHRYRDGVAGISGTSDDYAFLIHGLLELYEAGFKMRYLKAAVSLNSELLECFWDPVNGGLYFTANDSEALIFRKKE”, the “soluble on expression in E. coli” value is listed as “not soluble”.
As for “MAHHHHHHMGTLEAQTQGPGSMENKEKIYEGKAKIIFATLNPLEVIQHFKDEITAFNNKKAAIIHEKGILNNYISSFLMKKLIDKGIKTHFISLLNQREQLVKKITIIPIEVVIRNLAAGNFSKRFQIADGTPFKSPIIEFYYKNDELSDPMVSEGHILSFQWLTNQELEKIKILSLKINNILSELFFNVGIKLVDFKLEFGKLHNDEQSDLFLADEISPDTCRLWDISTNKRLDKDRYRLNLGNVIEGYREVAHKLNAIPNL”, the “soluble on expression in E. coli” value is recorded as “soluble”.
For “MGSDKIHHHHHHMQMAVRWQLSGSYFENCSCDVVCPCLLSTKAQLTSRPTKGVCDVGLVFHIDTGNYGDVRLDGLSVALVAHTPGPMADGNWTAAAYIDERADDRQTEALGAIFTGAAGGPMAVLAPMIGTNLGAKKVPIDYRIDGKKRSAAIAGVMQMAVEPLPTMREDGQMWAATGHPVNPDWLGMAMGAQGSTFSDHGMSWDNSGQNGHYAPINWSGE”, the “soluble on expression in E. coli” value is on record as “not soluble”.
For “MGSDKIHHHHHHMNVAIIGCGYVGYQVAQYWQQKMNFVVSTTTTSPERVPALQSVSQRVFVTSGNDLDSLKSVLHNQDVVLLSVGAKGAEVYEETYLQTAQNLVSCLQQNPSVKQLIYTGSYAVYGDRNGVWVDEETPLAPANLNAQILRKTEDILLSASSENLRVCIFRLGGIYGPGRELLKIFSRYSGTNRPGGEDITNWIHLDDIVGAIEFARNRRLQGIYNLVDDAHLTSRDLLDSLFEKHNLPKVIWDTTVKSTRPYNAWVSNEKLKEAGYQLIHPQMIF”, the “soluble on expression in E. coli” value was “not soluble”.
The entry for “MREIVSIHIGQAGVQIGNACWELYCLEHGITPDGLMPDDTSYGVEDQSYNTFFSETPSGKHVPRAIFVDLEPTVIDEVRTGTYAKLFHPEQLISGKEDAANNYARGHYTIGKELIDVVMDRVRRLTERCQSLQGFLIFHSFGGGTGSGFTSLVMERLSIDYGKKAKLEFSIYPAPQISTSMVEPYNSLLTTHTTLEHSDCSFIMDNEAIYEITKVNLGVRSPTYTHLNRLLAQVVSSITASLRFDGALNVDLTEFQTNLVPYPRIHFPLVTYAPIISAEKAYHEQLSVSEITNVCFEPGSQMVKCDPRNGKYMACCLLYRGDVVPKEINSAISTIKTKRAIQFVDWCPTGFKVGINYQPPTVVPGGDMAKLQRAVCMLSNTTAIQEAWARLDHKFDLMYAKRAFVHWYVGEGMEEGEFSEAREDMAALEKDYEEVGVDSFDPNDEEY” is “not soluble”; for “SDIAIHHPWIRRPFFPFHSPSRLFDQFFGEHLLESDLFPTSTSLSPFYLRPPSFLRAPSWFDTGLSEMRLEKDRFSVNLDVKHFSPEELKVKVLGDVIEVHGKHEERQDEHGFISREFHRKYRIPADVDPLTITSSLSSDGVLTVNGPRKQVSGPERTIPITREEKPAVTAAPKK” it is “soluble”; for “MGSDKIHHHHHHMRIDVDAFKVLEVLVEEGSFAKAAERLHKAQSAVSYQIKKLEQHLGVSLLSREQYRAELTAEGRVILAEGQRLLSHLANIEHLASRFSEGWEPKLELVIDGALPMEPIMTALKRMAEHQIPTKIQLNMEFLGGVQHRFERDNADLMLVKDYRTGPYYYAKPLPAITSVLLAAPHHPLAGRKALTLTELQQHVELTIEDSSPVKTYRDELQFGGDKVFYLSGFIMKKNALLKGLGFGWMPDFLVRDELKAGLLTEIDFVGGSRYTFVPQLVSTLERPLGRAGRLFTELILEEFAKEPMGIPEGLG” it is “not soluble”.
Consider “MKSMVEMQREVDEYIGQFKTGYFSPLANLARLTEEVGELAREINHTYGEKKKKDSEEANTIKAELGDNLFVLLCLANSMGIDMTESFNETMEKFNTRDKNRFERKLEHHHHHH”, for which the “soluble on expression in E. coli” value is given as “soluble”.
“MGSDKIHHHHHHMRLKVSFQAMESTVPLNYNYFLSSFIYKRLASQNENFARFLHEKGYGKRFKFFTFSQLFFENSRVSGERIFIFPGKGWWYISSPVVEFVRYMFSSLSEDPVIRVGKTEFIVKSIDIENSLPDQSEYHFVMLSPLVVSVPEENNGKLYHRYLHPGEEEFYEVFRKNLMKKYRAFYGKDPEGTVEVIPDWDYIKSRHRITKRIKLKNAFVRAVVFPFKIRGEKKLVEIGYEAGFGEKNSMGFGMVALKKYER”: the “soluble on expression in E. coli” value is “not soluble”.
The result for “MSLDVSEGGVTVSVPTASGGGEGAADDVFFNATQELNRDLTVATLAAFREREPRAASYLDAMTASGIRGVRAANAGWDVTMADVDADAVELATSNLARNGLDGEVVARDANSLLHDHDRVLDVVDIDPFGSPMPFADAAFANARNLVCVTATDTAPLCGAHFESGVRKYSATPRNTNYHAEMGLRILLGALARTAARYDVGVTPILSHVSDHYVRTYLELDHRATDANAAVEQVGHVYHCQQCLSRDHEYGLVAAPRAECPRCGGHQVLTAGPLWLGPAHEEAFAASVREQLTREMGEASQAFHLLQTIEGELHEPTHYDQHRLYSQWGEPAVGMAEFLDQLRDAGLRASRTHFGGTTFKTDGGLAEVEAAVLEGHHHHHH” reads “not soluble”.
The result for “MADPWLSIIGLGEDGPAGLPDASRAALEAAEVVVGGPRHLALVDARARGMEWPVPFDPAPVLALRGRPVAVLASGDPFWHGAGGSLAAALSPGEWRAYPAPGVVALAAARLGWRQEELLALGLHAAPFERLLPELAPGRRGVCTLRDGPAAGALAAFLAAEGWGESRLWVMEALGGPRERVRATTAGAFSLTDVAAPVTVAFEAEGGRAQPRSAGLPDSLFAHDGQITKAPVRALTLAALAPRRGEILWDLGAGSGSVSVEWCLAGGRAVAVELRPERAANIRANAARFALPLEVVEGRALDNLPALPAPDAIFVGGGFDEALFAALPPTARLVVNAVTLETEALLAALQARHGGELLRIELARAAPLGRMRGWEAARPVVQWSLVR” reads “not soluble”.
Consider “MGSDKIHHHHHHMTEKFNRQRAENLIAIANQFAQLGKVTAVKAFGSGNINDTFLVTLDSSKEQHFVLQRINTQVFRQPKLIMQNMRTFTEHVHKRLQHTPLNRRWEVPRVLLTKDAQDHCQDSDGSFWRAISFIEGSQSFDTMRDRSQAKEIGYALGMFHNLISDLPPEKLADTLQGFHITPLYLQHYEEVLAKTSASQSSEVNYCLQFVSDRQAFAHILENAKAEGKLPLRLMHGDPKINNVMFDTVTQQAVSVIDLDTVKPGLVHYDIGDCLRSGCNQAGEETENWESVHFDPGLCQGILQGYLSVAKAFLTENDYAYIYDAIRLIAFELGLRFFADYLAGNVYFKVKHPEHNLARAIVQFKLTESIESQETQIRNIIKDMK”, for which the “soluble on expression in E. coli” value is listed as “not soluble”.
Turning to “MSNSITVRARGVNGQESVSLQVGGTTVQTWTLTTAMQDYTASTSLTGEIRVAFTNDATGRDVQVDYIVVNGQTRQAENQSVNTGVWANNQCGGSGNSEWLHCNGYISFGNVS”, the “soluble on expression in E. coli” value is listed as “soluble”.
As for “MKFKIHSDITYQVMSPTTFIFNVHALRTESQHILDESLIVTPPIEIEEFSYNSGTSRFVRLKATENTTFSMSYTATVDTQYKVIDQRQELETVPVVDLDGDIIPFLFPSRYCQSDKLQKLAYKEFGKIENVYSKVLAITDWIYNNVEYISGSTNSQTSAFDTITERAGVCRDFAHLGIALCRALSIPARYFTGYAFKLNPPDFHACFEAYIGGNWIIFDATRLVPLNGLVKIATGRDAADAAVASIFGNASSTNMHVECASLDTDFTPFWYDKNSLKGLSFQ”, the “soluble on expression in E. coli” value was “soluble”.
“MRLPHQLTGSRFFSFSDEGEFLKSVSAVVDEEEFVRIGSLVQAGLMPITSKEVLATMLGVNPGIIWSLENKPERYYRRFKIPKGKGEREIVAPKVGLKVIQKWFSVQLQDCARIDDHVFGFVPGRSHIDAASVHTNANWVYSIDLTNFFPSTPINWVASSLINIGYDADSADRISKLCCYRGALAQGSPASPVLSNISMRGIDAALGALAAEMDVRVTRYADDITFSAAGEFPQVLPERLESLFSQTPWKISQEKTYFSEAPVRLKVHGLVVNGNTVKLTKGYRNKLRAYRHVLQTNRCRQEDLARLSGHVRYASQVSSRDDLEHHHHHH”: the “soluble on expression in E. coli” value is recorded as “not soluble”.
Turning to “MSLKITNVQTQKVLVPLKKPLITAIHKTDSVGVVIVKIETDTGLVGENYVFALNKDRLDVFDAMIKSLTQFLIGNNPVYVEKIWQQMWQDCNPVGQKGIAISAISAIDTALWDLIGKQANMPLYQVFGACRDKVKTYASSGLWLSSNIDELIEEAHGFIDQGFRSMKLRLGKPDLKEDVERARALRASVGDDIEILTDANQSLTPRQAIALGRQLEDLNIAWLEEPVPAHDLAGHNRVLEAINIPVASGETDYTRFGMKDMLDHKAVDILMPDLQRIGGLSEFRKAAALASAYHIPVSSHIFTEQSLSIAGSADNCISVEHVDWFAPLYQEKIVINDGFIDMPMGAGIGFNFDYDFIDQNLIEGHHHHHH”, the “soluble on expression in E. coli” value was “soluble”.
Consider “MLIALTGTPGTGKSSVAERLRERGYKVATVVELAEKHGCIIDEEDGEIVIDVESLAARIDFEGIVEGHLSHLLKPDVAIVLRCNPAVLRERLKGRNWSEEKLLENLEAEMLDVILVEALEHASEVYEIDTTEMSLEEVIEAVEAIIRGDREARKRYKPGGIDWLSELEDRIEEFMRKVLEHHHHHH”, for which the “soluble on expression in E. coli” value is given as “soluble”.
Regarding “MSLEAKEVYFEQRGDIGYIVINNAPENMITLSLLEEFSNIVENSIINSKIKGIIITGKGRHFSSGTDIGKLKQTILKTAYIKENNSLVECSEFKRYIDALSSLYSINIPVISAINGLCIGSGFEIALHSHIRICSKGSIVGSPESTFGLMPGLGGISRYVQLCGLGKALELVLSGDLLSVNEALEIGIIDKIVKKNEISDYCNRLMEYILKNEMIYSKSKINSYIKLCDEGHHHHHH”, the “soluble on expression in E. coli” value is “soluble”.
“MDHYLVPYNQRANHSKPIPPFLLDLDSQSVPDALKKQTNDYYILYNPALPREIDVELHKSLDHTSVVCCVKFSNDGEYLATGCNKTTQVYRVSDGSLVARLSDDSAANKDPENLNTSSSPSSDLYIRSVCFSPDGKFLATGAEDRLIRIWDIENRKIVMILQGHEQDIYSLDYFPSGDKLVSGSGDRTVRIWDLRTGQCSLTLSIEDGVTTVAVSPGDGKYIAAGSLDRAVRVWDSETGFLVERLDSENESGTGHKDSVYSVVFTRDGQSVVSGSLDRSVKLWNLQNANNKSDSKTPNSGTCEVTYIGHKDFVLSVATTQNDEYILSGSKDRGVLFWDKKSGNPLLMLQGHRNSVISVAVANGSSLGPEYNVFATGSGDCKARIWKYKKIAPN”: the “soluble on expression in E. coli” value is recorded as “soluble”.
The entry for “MTILEELNDSSIPQRLDNHIFFGSVHSLTHTDFLVENNIRFFINVDLSTELISHIYHEVRSKFAHEIVIVNIDNDSQIPIESDLVRSFHWHNTSLLQQLIHHLDFLSGINNHGEPLTPPPESHYRNAYVQFDHPSDSVSILDKLLYGNKSEYSRTNIFQVTNEAKFQVFNDLITIFKYSIAQGGNTNSNILVLSENGSTDENLISLLMSTVLKENPTFNVYQALQFVKSIAVIPDTVRDEKILWVTGFINYQELIKKNEMYWGLGSQKGRKLTSFASPISKVERKQRRRDDQNIMRSKLPQQRQNPFCSTERPKRARCD” is “not soluble”.
